In article PMC11573789:

B1: Upf1-SmBiT [S. cerevisiae] / Dbp2 [S. cerevisiae] (parent)
chain 1: MVGSGSHTPYDISNSPSDVNVQPATQLNSTLVEDDDVDNQLFEEAQVTETGFRSPSASDNSCAYCGIDSAKCVIKCNSCKKWFCNTKNGTSSSHIVNHLVLSHHNVVSLHPDSDLGDTVLECYNCGRKNVFLLGFVSAKSEAVVVLLCRIPCAQTKNANWDTDQWQPLIEDRQLLSWVAEQPTEEEKLKARLITPSQISKLEAKWRSNKDATINDIDAPEEQEAIPPLLLRYQDAYEYQRSYGPLIKLEADYDKQLKESQALEHISVSWSLALNNRHLASFTLSTFESNELKVAIGDEMILWYSGMQHPDWEGRGYIVRLPNSFQDTFTLELKPSKTPPPTHLTTGFTAEFIWKGTSYDRMQDALKKFAIDKKSISGYLYYKILGHQVVDISFDVPLPKEFSIPNFAQLNSSQSNAVSHVLQRPLSLIQGPPGTGKTVTSATIVYHLSKIHKDRILVCAPSNVAVDHLAAKLRDLGLKVVRLTAKSREDVESSVSNLALHNLVGRGAKGELKNLLKLKDEVGELSASDTKRFVKLVRKTEAEILNKADVVCCTCVGAGDKRLDTKFRTVLIDESTQASEPECLIPIVKGAKQVILVGDHQQLGPVILERKAADAGLKQSLFERLISLGHVPIRLEVQYRMNPYLSEFPSNMFYEGSLQNGVTIEQRTVPNSKFPWPIRGIPMMFWANYGREEISANGTSFLNRIEAMNCERIITKLFRDGVKPEQIGVITPYEGQRAYILQYMQMNGSLDKDLYIKVEVASVDAFQGREKDYIILSCVRANEQQAIGFLRDPRRLNVGLTRAKYGLVILGNPRSLARNTLWNHLLIHFREKGCLVEGTLDNLQLCTVQLVRPQPRKTERPMNAQFNVESEMGDFPKFQDFDAQSMVSFSGQIGDFGNAFVDNTELSSYINNEYWNFENFKSAFSQKQNRNEIDDRNLYQEEASHLNSNFARELQREEQKHELSKDFSNLGI
chain 2: MTYGGRDQQYNKTNYKSRGGDFRGGRNSDRNSYNDRPQGGNYRGGFGGRSNYNQPQELIKPNWDEELPKLPTFEKNFYVEHESVRDRSDSEIAQFRKENEMTISGHDIPKPITTFDEAGFPDYVLNEVKAEGFDKPTGIQCQGWPMALSGRDMVGIAATGSGKTLSYCLPGIVHINAQPLLAPGDGPIVLVLAPTRELAVQIQTECSKFGHSSRIRNTCVYGGVPKSQQIRDLSRGSEIVIATPGRLIDMLEIGKTNLKRVTYLVLDEADRMLDMGFEPQIRKIVDQIRPDRQTLMWSATWPKEVKQLAADYLNDPIQVQVGSLELSASHNITQIVEVVSDFEKRDRLNKYLETASQDNEYKTLIFASTKRMCDDITKYLREDGWPALAIHGDKDQRERDWVLQEFRNGRSPIMVATDVAARGIDVKGINYVINYDMPGNIEDYVHRIGRTGRAGATGTAISFFTEQNKGLGAKLISIMREANQNIPPELLKYDRRSYGGGHPRYGGGRGGRGGYGRRGGYGGGRGGYGGNRQRDGGWGNRGRSNY
B2: Upf1-SmBiT [S. cerevisiae] / Edc3 [S. cerevisiae] (parent)
chain 1: B1 chain 1
chain 2: MSQFVGFGVQVELKDGKLIQGKIAKATSKGLTLNDVQFGDGGKSQAFKVRASRLKDLKVLTVASQSGKRKQQRQQQQQNDYNQNRGEHIDWQDDDVSKIKQQEDFDFQRNLGMFNKKDVFAQLKQNDDILPENRLQGHNRKQTQLQQNNYQNDELVIPDAKKDSWNKISSRNEQSTHQSQPQQDAQDDLVLEDDEHEYDVDDIDDPKYLPITQSLNITHLIHSATNSPSINDKTKGTVINDKDQVLAKLGQMIISQSRSNSTSLPAANKQTTIRSKNTKQNIPMATPVQLLEMESITSEFFSINSAGLLENFAVNASFFLKQKLGGRARLRLQNSNPEPLVVILASDSNRSGAKALALGRHLCQTGHIRVITLFTCSQNELQDSMVKKQTDIYKKCGGKIVNSVSSLESAMETLNSPVEIVIDAMQGYDCTLSDLAGTSEVIESRIKSMISWCNKQRGSTKVWSLDIPNGFDAGSGMPDIFFSDRIEATGIICSGWPLIAINNLIANLPSLEDAVLIDIGIPQGAYSQRTSLRKFQNCDLFVTDGSLLLDL
B3: Upf1-SmBiT [S. cerevisiae] / Pat1 [S. cerevisiae] (parent)
chain 1: B1 chain 1
chain 2: MSFFGLENSGNARDGPLDFEESYKGYGEHELEENDYLNDETFGDNVQVGTDFDFGNPHSSGSSGNAIGGNGVGATARSYVAATAEGISGPRTDGTAAAGPLDLKPMESLWSTAPPPAMAPSPQSTMAPAPAPQQMAPLQPILSMQDLERQQRQMQQQFMNFHAMGHPQGLPQGPPQQQFPMQPASGQPGPSQFAPPPPPPGVNVNMNQMPMGPVQVPVQASPSPIGMSNTPSPGPVVGATKMPLQSGRRSKRDLSPEEQRRLQIRHAKVEKILKYSGLMTPRDKDFITRYQLSQIVTEDPYNEDFYFQVYKIIQRGGITSESNKGLIARAYLEHSGHRLGGRYKRTDIALQRMQSQVEKAVTVAKERPSKLKDQQAAAGNSSQDNKQANTVLGKISSTLNSKNPRRQLQIPRQQPSDPDALKDVTDSLTNVDLASSGSSSTGSSAAAVASKQRRRSSYAFNNGNGATNLNKSGGKKFILELIETVYEEILDLEANLRNGQQTDSTAMWEALHIDDSSYDVNPFISMLSFDKGIKIMPRIFNFLDKQQKLKILQKIFNELSHLQIIILSSYKTTPKPTLTQLKKVDLFQMIILKIIVSFLSNNSNFIEIMGLLLQLIRNNNVSFLTTSKIGLNLITILISRAALIKQDSSRSNILSSPEISTWNEIYDKLFTSLESKIQLIFPPREYNDHIMRLQNDKFMDEAYIWQFLASLALSGKLNHQRIIIDEVRDEIFATINEAETLQKKEKELSVLPQRSQELDTELKSIIYNKEKLYQDLNLFLNVMGLVYRDGEISELK

Variants of: B1
Assay: NanoBiT (ratiometric protein-fragment complementation assay in live yeast)
Conditions: with Dbp2 [S. cerevisiae]; four experimental replicates; read off a plot

screen value [log2] | Variant
2 | chain 1 C122S

Variants of: B2
Assay: as above
Conditions: with Edc3 [S. cerevisiae]; four experimental replicates; read off a plot

screen value [log2] | Variant
-2.8 | chain 1 C122S

Variants of: B3
Assay: as above
Conditions: with Pat1 [S. cerevisiae]; four experimental replicates; read off a plot

screen value [log2] | Variant
-1.6 | chain 1 C122S
